Source: patent publication US20220313845A1 (MYTHIC THERAPEUTICS, published 2022)

T1: recombinant human DLL3 extracellular domain (R&D Systems, Cat #9749-DL) (human, UniProt Q9NYJ7 27-492)
T1 construct: Bought protein; also called soluble recombinant human DLL3 extracellular domain
T1 sequence: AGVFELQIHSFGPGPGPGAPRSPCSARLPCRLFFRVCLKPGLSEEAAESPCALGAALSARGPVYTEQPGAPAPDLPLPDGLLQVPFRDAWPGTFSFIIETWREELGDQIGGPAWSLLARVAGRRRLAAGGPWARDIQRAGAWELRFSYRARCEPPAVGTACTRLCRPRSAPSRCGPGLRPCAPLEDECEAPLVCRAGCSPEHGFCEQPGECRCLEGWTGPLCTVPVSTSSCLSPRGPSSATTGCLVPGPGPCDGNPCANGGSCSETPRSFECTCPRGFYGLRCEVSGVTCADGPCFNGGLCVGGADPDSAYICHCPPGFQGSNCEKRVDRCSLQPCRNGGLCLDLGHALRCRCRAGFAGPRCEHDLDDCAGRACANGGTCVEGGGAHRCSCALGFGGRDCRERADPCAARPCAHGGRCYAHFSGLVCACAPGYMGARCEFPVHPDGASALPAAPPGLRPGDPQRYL

T2: DLL3 on NCI-H82 cells (human, UniProt Q9NYJ7 27-618)
T2 construct: Endogenous DLL3 of NCI-H82 (DLL3+) cells; also called cell surface DLL3
T2 sequence: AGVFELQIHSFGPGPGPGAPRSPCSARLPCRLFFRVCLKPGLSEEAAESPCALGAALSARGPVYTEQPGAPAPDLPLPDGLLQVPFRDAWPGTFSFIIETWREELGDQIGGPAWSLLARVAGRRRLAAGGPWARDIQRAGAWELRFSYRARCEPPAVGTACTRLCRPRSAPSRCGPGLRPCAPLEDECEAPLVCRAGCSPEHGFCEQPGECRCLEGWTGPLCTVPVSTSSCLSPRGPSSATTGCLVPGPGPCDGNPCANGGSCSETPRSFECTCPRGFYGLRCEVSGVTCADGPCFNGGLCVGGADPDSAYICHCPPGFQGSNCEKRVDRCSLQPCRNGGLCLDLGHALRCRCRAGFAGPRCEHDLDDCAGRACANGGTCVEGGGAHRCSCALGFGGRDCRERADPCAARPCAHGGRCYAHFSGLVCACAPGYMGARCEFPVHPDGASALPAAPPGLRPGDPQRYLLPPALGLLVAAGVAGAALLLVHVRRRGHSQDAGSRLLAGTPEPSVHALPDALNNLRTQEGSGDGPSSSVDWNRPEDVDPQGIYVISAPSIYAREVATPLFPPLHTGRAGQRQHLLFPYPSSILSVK


molecular target: T1, recombinant human DLL3 extracellular …; assay: phage ELISA after three rounds of panning on biotinylated recombinant human DLL3
Excerpt: Multiple ABPC display systems, including phage display systems and those with ABPCs based on VH domains, have been described in the literature and can be used as a template for selection of pH engineered ABPCs using panning (Scroter C (2015) “A generic approach to engineer antibody pH switches using combinatorial histidine scanning libraries and yeast display” mAbs, 7:1, 138-151; Bonvin P (2015) “De novo isolation of antibodies with pH-dependent binding properties” mAbs, 7:2, 294-302; Traxlmayr P (2014) “Construction of pH-sensitive Her2-binding IgG1-Fc by directed evolution” Biotechnology Journal 9(8): 1013-1022; Gera N (2012) “Design of pH sensitive binding proteins from the hyperthermophilic Sso7 d scaffold” PLOS ONE 7 (11) e48928). pH engineered anti-DLL3 variants were selected by screening a proprietary humanized VH domain phage display library. Humanized VH library was screened against soluble recombinant human DLL3 extracellular domain (R&D Systems, Cat #9749-DL) in three rounds of selections with successively lower concentrations to isolate pH dependent anti-DLL3 VH domains. Briefly, the library was depleted for non-specific binders by incubating with Dynal M-280 streptavidin beads, bound antibodies were separated via a magnet and supernatant was collected for positive selection with human DLL3. Depleted library was further incubated with biotinylated recombinant human DLL3 at pH 7.4 for 1-3 hours at room temperature. Dynal streptavidin beads were added to the mixture to capture human DLL3 bound antibodies and washed 3× with a pH 7.4 buffer. Bound antibodies were eluted from beads using 0.1 M glycine pH 2.7 which was then neutralized with 1M Tris pH 7.4.

| Binder | binding result |
| --- | --- |
| SEQ ID NO 608 (other, also called Humanized VH variant #3) VH: EVQLVESGGGLVQPGGSLRLSCAASGFNISYYSIGWVRRAPGKGEELVARIYPTNGYTRYADSVKGRFTISADTSKNTAYLQMNSLRAEDTAVYYCARYHHSEYSDYYGYYSEYGFDYSGQGTLVTVRS | binds |
| SEQ ID NO 613 (other, also called Humanized VH variant #8) VH: EVQLVESGGGLVQPGGSLRLSCAASGFNIEYESIGWVRRAPGKGEELVARIYPTNGYTRYADSVKGRFTISADTSKNTAYLQMNSLRAEDTAVYYCARSEYSHYSGSHHYYALDYSGQGTLVTVSS | binds |
| SEQ ID NO 614 (other, also called Humanized VH variant #9) VH: EVQLVESGGGLVQPGGSLRLSCAASGFNISEHSIGWVRRAPGKGEELVARIYPTNGYTRYADSVKGRFTISADTSKNTAYLQMNSLRAEDTAVYYCARSYYHGYSHGHHYYAIDYSGQGTLVTVSS | binds |
| SEQ ID NO 609 (other, also called Humanized VH variant #4) VH: EVQLVESGGGLVQPGGSLRLSCAASGFNIYSYSIGWVRRAPGKGEELVARIYPTNGYTRYADSVKGRFTISADTSKNTAYLQMNSLRAEDTAVYYCAREHYHGYYDGAHYYALDYSGQGTLVTVSS | binds |
| SEQ ID NO 618 (other, also called Humanized VH variant #13) VH: EVQLVESGGGLVQPGGSLRLSCAASGFNISEESIGWVRRAPGKGEELVARIYPTNGYTRYADSVKGRFTISADTSKNTAYLQMNSLRAEDTAVYYCARSYYAHYSAGYYYYALDYSGQGTLVTVSS | binds |
| SEQ ID NO 610 (other, also called Humanized VH variant #5) VH: EVQLVESGGGLVQPGGSLRLSCAASGFNIEYYSIGWVRRAPGKGEELVARIYPTNGYTRYADSVKGRFTISADTSKNTAYLQMNSLRAEDTAVYYCAREYYSYHDEYEYDYALDYSGQGTLVTVSS | binds |

The next lines start with the values.

| binding result | Binder |
| --- | --- |
| binds | SEQ ID NO 619 (other, also called Humanized VH variant #14) VH: EVQLVESGGGLVQPGGSLRLSCAASGFNISHYSIGWVRHAPGKGEELVARIYPTNGYTRYADSVKGRFTISADTSKNTAYLQMNSLRAEDTAVYYCARHHYSHYDGHSHYYGLDYSGQGTLVTVSS |
| binds | SEQ ID NO 611 (other, also called Humanized VH variant #6) VH: EVQLVESGGGLVQPGGSLRLSCAASGFNIEHYSIGWVRRAPGKGEELVARIYPTNGYTRYADSVKGRFTISADTSKNTAYLQMNSLRAEDTAVYYCARHHYYGYHSGYHHYAIDYSGQGTLVTVSS |
| binds | SEQ ID NO 607 (other, also called Humanized VH variant #2) VH: EVQLVESGGGLVQPGGSLRLSCAASGFNIYSESIGWVRRAPGKGEELVARIYPTNGYTRYADSVKGRFTISADTSKNTAYLQMNSLRAEDTAVYYCARSYYSHYDGHYHYYGLDYSGQGTLVTVSS |
| binds | SEQ ID NO 620 (other, also called Humanized VH variant #15) VH: EVQLVESGGGLVQPGGSLRLSCAASGFNIYDHSIGWVRRAPGKGEELVARIYPTNGYTRYADSVKGRFTISADTSKNTAYLQMNSLRAEDTAVYYCARSSYSGYYGSHHYYALDYSGQGTLVTVSS |
| binds | SEQ ID NO 615 (other, also called Humanized VH variant #10) VH: EVQLVESGGGLVQPGGSLRLSCAASGFNIHSYYIGWVRRAPGKGEELVARIYPTNGYTRYADSVKGRFTISADTSKNTAYLQMNSLRAEDTAVYYCARGYYGHEYDYHYDYYGGGFDYSGQGTLVTVSS |
| binds | SEQ ID NO 616 (other, also called Humanized VH variant #11) VH: EVQLVESGGGLVQPGGSLRLSCAASGFNIHYEEIGWVRRAPGKGEELVARIYPTNGYTRYADSVKGRFTISADTSKNTAYLQMNSLRAEDTAVYYCARYSYYYHYGGGMDYSGQGTLVTVSS |
| binds | SEQ ID NO 606 (other, also called Humanized VH variant #1) VH: EVQLVESGGGLVQPGGSLRLSCAASGFNISYYYIGWVRRAPGKGEELVARIYPTNGYTRYADSVKGRFTISADTSKNTAYLQMNSLRAEDTAVYYCARAYGDSDHYSEAIDYSGQGTLVTVSS |
| binds | SEQ ID NO 612 (other, also called Humanized VH variant #7) VH: EVQLVESGGGLVQPGGSLRLSCAASGFNISSSDIGWVRRAPGKGEELVARIYPTNGYTRYADSVKGRFTISADTSKNTAYLQMNSLRAEDTAVYYCARYYYYDDDGYYYEHAIDYSGQGTLVTVSS |

molecular target: T2, DLL3 on NCI-H82 cells; assay: flow cytometry titration on NCI-H82 cells, Alexa Fluor 488 anti-human IgG; Example 37 calls the fitted value a dissociation constant KD
Procedure: FIGS. 20a-c: Characterization of binding affinity for anti-DLL3 mAbs. Anti-DLL3 mAbs were assayed for their binding to NCI-H82 cells.
Binding affinity of selected anti-DLL3 pH engineered antibody variants from Examples 9-13 were measured on NCI-H82 cells. 100,000 cells per well were resuspended in 900 μL FC buffer in a 96 well deep well plate. Rovalpituzumab and pH engineered antibody variants were serially diluted at a 1:3 dilution. 100 μL of diluted antibody was added to each well with final concentration ranging from […] and incubated for 2 hours at 4° C. Post incubation, the cells were spun at 2000 rpm for 2 min and supernatant was discarded. Cells were washed twice with 500 μL of ice-cold FC buffer and resuspended with 100 μL of FC buffer. The cells were then transferred from the deep well plate to 96 well round bottom plate, spun at 2000 rpm for 2 min and incubated with 100 μL of 10 μg/mL Alexa Fluor 488 conjugated goat anti-human IgG secondary antibody (ThermoFisher Scientific, A11013) for 30 min. Post incubation, cells were washed with FC buffer and resuspended in 100 μL of FC buffer to read on a BD Accuri C6 flow cytometer. Binding affinity was measured as a dissociation constant KD by GraphPad Prism assuming Michaelis-Menten binding kinetics. […]

| KD [pM] | Binder |
| --- | --- |
| 8 | rovalpituzumab (antibody, V domains shown, IgG expressed in Expi293; the entries called heavy and light chain are variable domains; also called MYT0638) VH: QVQLVQSGAEVKKPGASVKVSCKASGYTFTNYGMNWVRQAPGQGLEWMGWINTYTGEPTYADDFKGRVTMTTDTSTSTAYMELRSLRSDDTAVYYCARIGDSSPSDYWGQGTLVTVSS VL: EIVMTQSPATLSVSPGERATLSCKASQSVSNDVVWYQQKPGQAPRLLIYYASNRYTGIPARFSGSGSGTEFTLTISSLQSEDFAVYYCQQDYTSPWTFGQGTKLEIK |
